This note sets out measurements from publication PMC12732243.

This experiment has as its target human FSH receptor (human) (UniProt P23945).

Chain of human FSH receptor (human) (P23945 18-695): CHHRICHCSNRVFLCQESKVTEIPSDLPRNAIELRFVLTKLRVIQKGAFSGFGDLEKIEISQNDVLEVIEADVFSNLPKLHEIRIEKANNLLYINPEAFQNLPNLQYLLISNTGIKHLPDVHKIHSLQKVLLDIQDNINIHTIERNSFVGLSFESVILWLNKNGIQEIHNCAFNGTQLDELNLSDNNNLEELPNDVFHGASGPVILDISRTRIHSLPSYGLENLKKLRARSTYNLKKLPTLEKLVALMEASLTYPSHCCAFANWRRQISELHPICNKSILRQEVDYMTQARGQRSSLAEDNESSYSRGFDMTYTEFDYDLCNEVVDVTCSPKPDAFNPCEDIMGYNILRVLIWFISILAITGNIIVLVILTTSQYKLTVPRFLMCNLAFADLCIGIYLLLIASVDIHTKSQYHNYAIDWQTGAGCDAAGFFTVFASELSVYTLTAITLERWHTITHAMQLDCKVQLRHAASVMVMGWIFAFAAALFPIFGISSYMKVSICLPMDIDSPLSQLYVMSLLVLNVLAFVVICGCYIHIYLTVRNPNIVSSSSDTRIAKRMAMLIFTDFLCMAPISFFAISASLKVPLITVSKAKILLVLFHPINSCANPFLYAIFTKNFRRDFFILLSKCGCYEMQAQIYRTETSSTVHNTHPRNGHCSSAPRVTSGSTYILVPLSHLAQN

On to “recombinant monkey single-chain FSHβ/α (from UniProt Q6EV79 19-129; Q9BEH3 25-120) (ligand)”, for which the cAMP accumulation (HTRF) in HEK 293 cells expressing hFSHR, 30 min at room temperature with 0.5 mM IBMX; EC50 of the dose-response curve is 4.9 µL/mL.
